# Experimental data as given in article PMC3079244 (Biochemistry, 2011).
# Substitutions are numbered along the chain they refer to. Numbers in names are those of the source.
# B1: TylM1 from Streptomyces fradiae (N,N-dimethyltransferase), wild type (enzyme, UniProt P95748 1-255, looked up)
# chain: MAHSSATAGPQADYSGEIAELYDLVHQGKGKDYHREAADLAALVRRHSPKAASLLDVACGTGMHLRHLADSFGTVEGLELSADMLAIARRRNPDAVLHHGDMRDFSLGRRFSAVTCMFSSIGHLAGQAELDAALERFAAHVLPDGVVVVEPWWFPENFTPGYVAAGTVEAGGTTVTRVSHSSREGEATRIEVHYLVAGPDRGITHHEESHRITLFTREQYERAFTAAGLSVEFMPGGPSGRGLFTGLPGAKGETR
# B2: TylM1 H123A mutant protein (enzyme, Streptomyces fradiae, UniProt P95748 1-255, looked up)
# chain: B1 chain with H123A
# B3: TylM1 H123N mutant protein (enzyme, Streptomyces fradiae, UniProt P95748 1-255, looked up)
# chain: B1 chain with H123N
# Assays:
# TylM1 = TylM1 (Streptomyces fradiae, UniProt P95748); assay: X-ray crystal structure, […] Å; assay type: binding; settings: pH 7.0
# crystal structure [1] = molecular target: the molecule itself; assay: crystal structure
# crystal structure [2] = molecular target: the molecule itself; assay: crystal structure; remark: listed apart in the source
molecule,measurement,setting,value
C[S+](CC[C@H](N)C(=O)O)C[C@H]1O[C@@H](n2cnc3c(N)ncnc32)[C@H](O)[C@@H]1O (some centres unmarked) [SAM],"X-ray crystal structure, 1.35 Å","TylM1; ternary complex with dTDP-phenol, methyl donor site",The SAM cofactor abuts the first three β-strands of the N-terminal domain
Cc1cn([C@H]2C[C@H](O)[C@@H](COP(=O)(O)OP(=O)(O)Oc3ccccc3)O2)c(=O)[nH]c1=O [dTDP-phenol],"X-ray crystal structure, 1.35 Å","TylM1; ternary complex with SAM, sugar-nucleotide site",a close-up view of the binding pocket for dTDP-phenol is presented
B1,stoichiometry N,crystal structure [1],2
B2,binding result,crystal structure [2],binds
B3,binding result,crystal structure [2],binds
